From PMC4273445 (eLife, 2014) come the findings set out here.

Holding throughout (experiment): SPR
A general note: Surface plasmon resonance follows binding to a sensor surface in real time, without labels.

The target of experiment [1] is fHbp V1.1 Phe292 to Ala (N. meningitidis).
In experiment [2] the target is fHbp V1.1 Glu157 to Ala (N. meningitidis).
The target of experiment [3] is fHbp V2.21 Phe (at V1 Phe194) to Ala (N. meningitidis).
Experiment [4] concerns the target fHbp V2.21 Leu (at V1 Ile199) to Ala (N. meningitidis).
In experiment [5] the target is fHbp V2.21 His (at V1 His203) to Ala (N. meningitidis).
Experiment [6] deals with fHbp V3.28 Leu (at V1 Arg195) to Ala (N. meningitidis).
Experiment [7] concerns the target fHbp V2.21 Glu (at V1 His313) to Ala (N. meningitidis).

Chain of CFH67, CCP domains 6 and 7 of complement factor H (P08603 321-443): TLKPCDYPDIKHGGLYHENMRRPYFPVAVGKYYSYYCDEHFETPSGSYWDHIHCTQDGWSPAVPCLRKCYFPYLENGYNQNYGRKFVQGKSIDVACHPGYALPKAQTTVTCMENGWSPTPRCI

In the case of “CFH67, CCP domains 6 and 7 of complement factor H (from UniProt P08603 321-443) (domain or fragment)”, the dissociation constant (Kd) (usually the free concentration of one partner at which half of the binding sites on the other are occupied at equilibrium, for simple one-to-one binding) in experiment [1] amounted to 6.8 nM; in experiment [2], 20.7 nM.
For the substance “CFHR3_(12), the first two (N-terminal) CCP domains of complement factor H-related 3 (from UniProt Q02985 19-330) (domain or fragment)”, the dissociation constant (Kd) in experiment [3] was 1.08 nM; in experiment [4] it was 11.2 nM; in experiment [5] it was 3.81 nM; in experiment [6], 1.76 nM; in experiment [7] it was 0.723 nM.
